Test results from article PMC6403468.

Biological target: VLDLR fused to monomeric GFP (VLDLR_mGFP) (mouse)
Assay: FRET or BRET; time-resolved fluorescence anisotropy imaging (TR-FAIM, homo-FRET) of mGFP-tagged proteins in living HEK293 cells, rFRET from global fit, Imaging Medium; basal state, and before and after 1 uM AP20187, FL-Reelin or R3-6 (up to 90 nM)

Substance: VLDLR fused to monomeric GFP (VLDLR_mGFP) (receptor)
- rFRET: 0.0858
